Patent US9889181B2, “Bacteriophage lysin and antibiotic combinations against gram positive bacteria” (priority 2012, dated 2018)
Where two headings read alike, the source gives them in different places.

Tests used:
VISA = assay: MIC, broth microdilution (CLSI M07-A9); set-up: MIC 50% / MIC 90% / MIC Range: unit not given beside the values
MRSA [1] = assay: MIC, broth microdilution (CLSI M07-A9)
[2] = test system: Staphylococcus lugdiensis; assay: MIC, broth microdilution (CLSI M07-A9); conditions: Staphylococcus lugdiensis (10)
Streptococcus pneumoniae = assay: MIC, broth microdilution (CLSI M07-A9); conditions: Streptococcus pneumoniae (26)
[3] = test system: MRSA strain MW2 (also strains 738, 832); assay type: in vivo, BALB/c mice; conditions: 10^9 CFU, dosing at 2 hours, PlySs2 5.25 mg/kg
LRSA = assay: MIC, broth microdilution (CLSI M07-A9); set-up: MIC 50% / MIC 90% / MIC Range: unit not given beside the values
[4] = test system: Streptococcus pyogenes, Group A; assay: MIC, broth microdilution (CLSI M07-A9); conditions: Group A (54)
[5] = test system: Streptococcus agalactiae, Group B; assay: MIC, broth microdilution (CLSI M07-A9); conditions: Group B (51)
[6] = test system: MRSA strain MW2 and MSSA strain ATCC 29213; assay type: cell-based, Staphylococcus aureus; conditions: consistently across 1.25 to 15% surfactant
Lactobacillus spp. = assay: MIC, human gut bacteria; assay type: cell-based; conditions: N 6
MRSA [7] = assay: Murine bacteremia, PlySs2 dose-response and blood CFUs; assay type: in vivo, mice; conditions: for decrease in CFUs in blood: 5.25 mg/kg at 2-hours post-infection
Enterococcus faecium = assay: MIC, broth microdilution (CLSI M07-A9); conditions: Enterococcus faecium (5)
[8] = Vancomycin-intermediate (31) Staphylococcus aureus
[9] = Staphylcoccus aureus Methicillin resistant (120)
[10] = FIG. 27B, daptomycin 50 mg/kg once daily
[11] = FIG. 27E, vancomycin 110 mg/kg twice daily
[12] = Linezolid-resistant (5) Staphylococcus aureus

B1: PlySs2: bacteriophage lysin derived from Streptococcus suis, amino acid sequence of FIG. 29 (SEQ ID NO: 1) (protein, listed as Streptococcus suis)
chain: MTTVNEALNNVRAQVGSGVSVGNGECYALASWYERMISPDATVGLGAGVGWVSGAIGDTISAKNIGSSYNWQANGWTVSTSGPFKAGQIVTLGATPGNPYGHVVIVEAVDGDRLTILEQNYGGKRYPVRNYYSAASYRQQVVHYITPPGTVAQSAPNLAGSRSYRETGTMTVTVDALNVRRAPNTSGEIVAVYKRGESFDYDTVIIDVNGYVWVSYIGGSGKRNYVATGATKDGKRFGNAWGTFK
MIC90 (VISA; VISA (n = 10)): 1.2 µM
MIC 50% (VISA; [8]): 8
MIC 90% (VISA; [8]): 32
MIC Range (VISA; [8]): 1-64
MIC90 (MRSA [1]; MRSA (n = 45)): 0.15 µM
MIC 50% (MRSA [1]; [9]): 4 µg/mL
MIC 90% (MRSA [1]; [9]): 8 µg/mL
MIC Range (MRSA [1]; [9]): 1 to 16 µg/mL
MIC (MRSA [1]; strain MW2, without DTT): 32 µg/mL
MIC 50% [2]: 8 µg/mL
MIC 90% [2]: 8 µg/mL
MIC Range [2]: 8 µg/mL
MIC 50% (Streptococcus pneumoniae): 16 µg/mL
MIC 90% (Streptococcus pneumoniae): 64 µg/mL
MIC Range (Streptococcus pneumoniae): 1 to 64 µg/mL
24 hour survival rate [3, 10]: 56%
72 hour survival rate [3, 10]: 18%
24 hour survival rate [3, 11]: 60%
72 hour survival rate [3, 11]: 3%
MIC90 (LRSA; LRSA (n = 5)): 0.08 µM
MIC 50% (LRSA; [12]): 2
MIC 90% (LRSA; [12]): 2
MIC Range (LRSA; [12]): 2-4
MIC 50% [4]: 2 µg/mL
MIC 90% [4]: 8 µg/mL
MIC Range [4]: 0.5 to 8 µg/mL
MIC 50% [5]: 8 µg/mL
MIC 90% [5]: 16 µg/mL
MIC Range [5]: 1 to 64 µg/mL
fold inhibition of MIC in the presence of Survanta [6]: 8 fold
CF-301 MIC (Lactobacillus spp.): >512 µg/mL
protection (MRSA [7]; 5 mg/kg dose, data not shown): significant protection
decrease in CFUs in blood (MRSA [7]; in 15 minutes): 0.5 log10
decrease in CFUs in blood (MRSA [7]; within the 60 minutes of treatment): 2 log10
lowest dose with survival enhancement over mock-injected control (MRSA [7]; data not shown): 0.25 mg/kg
MIC 50% (Enterococcus faecium): >512 µg/mL
MIC 90% (Enterococcus faecium): >512 µg/mL
